Laboratory results as given in US20230068663A1 (University of Texas, published 2023).

B1: B2-17 (antibody, V domains shown)
VH: EVQLLDSGPRLLKPSETLSLTCGVSGVSTSSTHWWSWVRQTPGKGLEWIGEILHNGNTNSNPSLKSRVSMSIDKSRNQFSLQLKSMTAADTAVYYCASASPNWGASGAFDAWAQGTMVTVSS
VL: QSVLTQPPSASATPGQRVTISCSGSSSNIGSNPVNWYQQVPGMAPELVMYSDNQRPSGVPDRFSGSNSGTSASLAISGLQSEDEADYYCSTWDDSLNGLVFGTGTKVTVL
notes: also called B2-17_HC; B2-17_LC
B2: B2-19 (antibody, V domains shown)
VH: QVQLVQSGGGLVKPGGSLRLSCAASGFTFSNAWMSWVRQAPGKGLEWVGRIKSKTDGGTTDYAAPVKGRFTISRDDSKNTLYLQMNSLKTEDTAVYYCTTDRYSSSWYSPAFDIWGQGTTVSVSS
VL: QPVLTQPPSVSEAPRQRVTISCSGSSSNIGNNVVNWYQQLPGKAPKLLIYYDDLLPSGVSDRFSGSKSGTSASLAISGLQSEDEADYYCATWDDSLNGPVFGGGTKLTVL
notes: also called B2-19_HC; B2-19_LC
B3: B2-15 (antibody, V domains shown)
VH: EVQLVQSGAEVKKSGASVKVSCKSSGYTFTNYGISWVRQAPGQGLEWMGWISGDAGDTKFAQKFQGRVTMTTDTSTTTTYMELRSLRSDDTAVYYCARDGEYIPMFRGFDNYYGLDVWGQGTLVSVSS
VL: QSVLTQPPSASATPGQRVTISCSGRNANIGSNPVNWYQQLPGTAPRLVMYSNNQRPSGVPDRFSGSKSGTSASLAISGLQSEDEADYYCEGWDDSLNGYVFGTGTKVTVL
notes: also called B-15; B2-15_HC
B4: B2-16 (antibody, V domains shown)
VH: QVQLVQSGAEVKKPGSSVKVSCKASGGTFSSYAISWVRQAPGQGLEWMGGIIPIFGTANYAQKFQGRVTITADESTSTAYMELSSLRSEDTAVYYCASGIIPDNPYGMDVWGQGTMVSVSS
VL: DIVMTQSPLSLPVTLGQPASISCTSSQSLVYSDGNTYLNWFHQRPGQSPRRLFYKVSNRASGVPDRFSGSGSGTDFTLKISRVEAEDLGVYYCMQGTHWPVTFGQGTRLEIK
notes: also called B2-16_HC; B2-16_LC
B5: B2-7 (antibody, V domains shown)
VH: EVQLVESGGGVVQPGRSLRLSCAASGFTISSYGMHWVRQAPGKGLEWVAVISYDGSNKYYADSVKGRFTISRDNSKNTLYLQMNSLRVEDTAVYYCAKDLLLRYFDWSPKYYYNGMDVWGQGTMVTVSS
VL: QSVLTQPPSVSVAPGKTARITCGGNNIGSKSVHWYQQKPGQAPVLVVYDDSDRPSGIPERFSGSNSGNTATLTISRVEAGDEADYYCQVWDSSSDHPGVFGTGTKVTVL
notes: also called B2-7_HC; B2-7_LC

Tests used:
[1] = target: T1, full length human LILRB2 stably expressed on HEK293 cells (human, UniProt Q8N423 22-597); assay: competition flow cytometry, inhibition of SEMA4A-hFc-AF647 binding to HEK293_LILRB2 cells
T1 construct: whole, on cells; also called HEK293_LILRB2
Protocol: FIG. 34. […] Incubation was performed for 30 minutes at 4° C. Data shown is averaged geometric mean of fluorescence intensity ± standard error of the mean (s.e.m.) from duplicate samples acquired in a flow cytometer (BD FACS Celesta).

[2] = target: T2, LILRB2 chimeric receptor on LILRB2 reporter cells (extracellular domain of LILRB2 fused with … (UniProt Q8N423 22-460)); assay: flow cytometry, LILRB2 reporter cells
T2 construct: extracellular domain;domain: transmembrane/intracellular domains; associates with DAP12; also called LILRB2-expressing reporter cells
From the text: (§1) FIGS. 1A-C. Screening specific monoclonal antibodies for LILRB2. […] Binding of monoclonal antibodies was screened using flow cytometer on LILRB2 reporter cells. Bound antibodies were detected with Allophycocyanin (APC)-labeled goat anti-human IgG secondary antibody. (FIG. 1B) Quantification of binding ability of monoclonal antibodies to LILRB2 reporter cells.
(§2) Screening specific monoclonal antibodies for LILRB2. The inventors employed a stable reporter cell system to detect the binding ability of selected monoclonal antibodies to LILRB2. In this chimeric receptor reporter system, the extracellular domain (ECD) of LILRB2 is fused with transmembrane/intracellular domains of PILRb that associates with the adaptor protein DAP12 containing an immunoreceptor tyrosine-based activation motif. 27 monoclonal antibodies were screened. The LILRB2 reporter cells were incubated with selected monoclonal antibody, then labeled with (APC) goat anti-human IgG secondary antibody. […] The inventors generated LILRBAs and LILRBs reporters stably transduced with each receptor's extracellular domain (ECD).

LILRB2-His antigen = target: T3, LILRB2-His antigen (UniProt Q8N423 22-460, limits assumed); assay: indirect ELISA, coated LILRB2-His
T3 construct: Coated on ELISA plates; also used for phage panning; also called LILRB2 antigen; not shown: His tag
Protocol: ELISA binding EC of LILRB2 antibodies. The ELISA binding EC₅₀ of these 24 antibodies were measured by indirect ELISA. […] After incubation, HRP-conjugated goat anti-human Fc secondary antibody was incubated with the plates. The TMB substrate was added for color development and measurement of absorbance at 450 nm.

[3] = target: T4, endogenous LILRB2 on human myeloid cells / primary monocytes (human, UniProt Q8N423 22-597); assay: flow cytometry, CD14+CD16- monocytes, AF647-conjugated antibody
T4 construct: whole, on cells; also called cells expressing endogenous LILRB2
Protocol: FIG. 32. Binding of LILRB2 antibodies on CD14⁺CD16-monocytes isolated from human PBMC from healthy donors. Fifty thousand cells were incubated for 30 minutes at 4° C. with a dilution series (40-0.0006 μg/mL) of LILRB2 antibodies directly conjugated to AF647 in a final volume of 100 μL. Data shown is averaged geometric mean of fluorescence intensity from duplicate samples acquired in a flow cytometer (BD FACS Celesta) from one donor and is representative of 2 experiments with cells isolated from different donors.

LILRA4 = target: T5, LILRA4; assay: flow cytometry, reporter cells
T5 construct: also called LILRA4 reporter cells
T5 sequence (chain, as listed by the source limits assumed): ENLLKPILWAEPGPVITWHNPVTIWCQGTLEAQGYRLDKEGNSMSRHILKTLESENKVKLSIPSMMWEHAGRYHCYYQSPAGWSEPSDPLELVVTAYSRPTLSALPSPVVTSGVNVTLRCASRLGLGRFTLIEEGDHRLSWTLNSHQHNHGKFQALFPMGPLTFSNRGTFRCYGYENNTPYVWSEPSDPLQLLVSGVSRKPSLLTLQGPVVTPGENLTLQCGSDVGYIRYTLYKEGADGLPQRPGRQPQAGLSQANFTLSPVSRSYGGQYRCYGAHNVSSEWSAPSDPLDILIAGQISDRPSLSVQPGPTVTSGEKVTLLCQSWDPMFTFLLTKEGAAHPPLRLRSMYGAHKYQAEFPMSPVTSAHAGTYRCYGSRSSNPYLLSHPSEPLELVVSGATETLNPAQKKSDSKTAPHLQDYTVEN
Protocol: (§3) FIG. 29. Binding of LILRB2 antibodies on reporter cell line expressing ectodomain of LILR family proteins on cell surface. Bound antibodies were detected with anti-human Fc-specific secondary antibody (2nd Ab) conjugated to AF647. […] All incubations were performed for 30 minutes at 4° C. Data shown is mean fluorescence intensity after sample acquisition in flow cytometer.

LILRA5 = target: T6, LILRA5; assay: flow cytometry, reporter cells
T6 construct: also called LILRA5 reporter cells
T6 sequence (chain, as listed by the source limits assumed): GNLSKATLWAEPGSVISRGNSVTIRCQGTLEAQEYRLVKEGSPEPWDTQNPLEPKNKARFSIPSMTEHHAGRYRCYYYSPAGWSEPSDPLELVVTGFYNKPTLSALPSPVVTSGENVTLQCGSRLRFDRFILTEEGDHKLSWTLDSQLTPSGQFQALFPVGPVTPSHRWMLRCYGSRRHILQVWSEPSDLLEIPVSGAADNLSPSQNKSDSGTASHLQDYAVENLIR
Protocol: as §3

LILRB1 = target: T7, LILRB1; assay: flow cytometry, reporter cells
T7 construct: also called LILRB1 reporter cells; not shown: transmembrane/intracellular domains of PILRb, the display part of the chimeric reporter receptor
T7 sequence (chain, as listed by the source limits assumed): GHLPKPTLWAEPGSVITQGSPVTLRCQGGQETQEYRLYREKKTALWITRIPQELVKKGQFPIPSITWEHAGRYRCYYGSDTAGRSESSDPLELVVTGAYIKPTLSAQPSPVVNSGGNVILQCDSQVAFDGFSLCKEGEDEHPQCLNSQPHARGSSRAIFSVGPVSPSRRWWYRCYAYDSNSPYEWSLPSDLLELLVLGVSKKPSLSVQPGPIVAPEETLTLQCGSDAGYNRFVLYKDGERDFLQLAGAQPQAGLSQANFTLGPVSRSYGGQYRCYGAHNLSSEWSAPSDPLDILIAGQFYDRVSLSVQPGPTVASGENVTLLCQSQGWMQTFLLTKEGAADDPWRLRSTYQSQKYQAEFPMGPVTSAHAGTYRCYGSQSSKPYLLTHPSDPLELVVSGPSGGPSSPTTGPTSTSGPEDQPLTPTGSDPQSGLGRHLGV
Protocol: as §3

LILRA2 = target: T8, LILRA2; assay: flow cytometry, reporter cells
T8 construct: also called LILRA2 reporter cells; not shown: transmembrane/intracellular domains of PILRb, the display part of the chimeric reporter receptor
T8 sequence (chain, as listed by the source limits assumed): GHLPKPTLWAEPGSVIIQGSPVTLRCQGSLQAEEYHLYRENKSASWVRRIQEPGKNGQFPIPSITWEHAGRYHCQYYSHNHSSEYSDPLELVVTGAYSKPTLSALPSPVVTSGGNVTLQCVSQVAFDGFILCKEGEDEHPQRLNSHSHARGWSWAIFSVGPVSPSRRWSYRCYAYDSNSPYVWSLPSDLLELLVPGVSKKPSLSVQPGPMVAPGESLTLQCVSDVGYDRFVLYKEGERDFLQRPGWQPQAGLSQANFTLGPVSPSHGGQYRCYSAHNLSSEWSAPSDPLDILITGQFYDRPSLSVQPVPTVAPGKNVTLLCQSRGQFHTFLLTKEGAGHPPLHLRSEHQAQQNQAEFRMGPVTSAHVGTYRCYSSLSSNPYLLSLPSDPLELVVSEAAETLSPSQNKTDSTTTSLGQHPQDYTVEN
Protocol: as §3

LILRA3 = target: T9, LILRA3; assay: flow cytometry, reporter cells
T9 construct: also called LILRA3 reporter cells; not shown: transmembrane/intracellular domains of PILRb, the display part of the chimeric reporter receptor
T9 sequence (chain, as listed by the source limits assumed): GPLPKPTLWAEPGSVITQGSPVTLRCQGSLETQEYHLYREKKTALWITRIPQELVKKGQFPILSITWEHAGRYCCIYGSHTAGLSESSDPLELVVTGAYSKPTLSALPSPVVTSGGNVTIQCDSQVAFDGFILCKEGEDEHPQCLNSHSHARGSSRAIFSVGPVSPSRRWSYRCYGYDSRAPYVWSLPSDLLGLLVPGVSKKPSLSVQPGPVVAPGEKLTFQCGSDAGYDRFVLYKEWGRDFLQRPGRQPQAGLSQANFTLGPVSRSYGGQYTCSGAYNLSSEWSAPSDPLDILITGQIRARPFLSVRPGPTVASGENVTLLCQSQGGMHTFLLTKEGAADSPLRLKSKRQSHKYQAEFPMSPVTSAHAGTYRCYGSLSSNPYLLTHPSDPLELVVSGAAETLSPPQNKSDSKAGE
Protocol: as §3

LILRB4 = target: T10, LILRB4; assay: flow cytometry, reporter cells
T10 construct: also called LILRB4 reporter cells; not shown: transmembrane/intracellular domains of PILRb, the display part of the chimeric reporter receptor
Protocol: as §3

[4] = target: T11, LILRA1 on reporter cells (extracellular domain) (UniProt O75019 17-461, limits assumed); assay: flow cytometry, reporter cells
T11 construct: extracellular domain
T11 sequence (O75019 17-461 limits assumed): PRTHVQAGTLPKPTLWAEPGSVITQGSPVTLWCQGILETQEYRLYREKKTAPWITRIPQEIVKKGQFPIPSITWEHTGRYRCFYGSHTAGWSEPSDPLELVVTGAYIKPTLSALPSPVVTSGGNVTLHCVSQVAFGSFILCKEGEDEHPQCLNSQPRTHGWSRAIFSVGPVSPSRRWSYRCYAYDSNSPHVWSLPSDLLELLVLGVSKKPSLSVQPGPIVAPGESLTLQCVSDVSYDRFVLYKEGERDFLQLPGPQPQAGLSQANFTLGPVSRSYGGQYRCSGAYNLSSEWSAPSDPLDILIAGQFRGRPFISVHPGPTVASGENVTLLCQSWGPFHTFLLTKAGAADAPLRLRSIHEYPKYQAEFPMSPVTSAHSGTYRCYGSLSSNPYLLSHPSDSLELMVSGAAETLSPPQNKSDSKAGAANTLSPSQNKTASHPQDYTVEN
Protocol: as §3

[5] = target: T2, LILRB2 chimeric receptor on LILRB2 …; assay: flow cytometry on LILRB2 reporter cells, APC anti-human IgG
From the text: as §1, §2

[6] = target: T12, LILRB2 (antigen in solution, Octet RED 96) (UniProt Q8N423 22-460, limits assumed); assay: BLI (Octet RED 96), antibody on protein A biosensor, LILRB2 in solution
T12 construct: also called LILRB2 solution
Protocol: Affinity measurement of blocking antibodies. Affinities of the 5 blocking antibodies were measured on Octet RED 96 system.

[7] = target: T1, full length human LILRB2 stably …; assay: competition flow cytometry, inhibition of HLA-G-His binding to HEK293 cells expressing LILRB2
Protocol: FIG. 33. […] All incubations were performed for 30 minutes at 4° C. Data shown is averaged geometric mean of fluorescence intensity ± standard error of the mean (s.e.m.) from duplicate samples acquired in a flow cytometer (BD FACS Celesta).

| Binder | IC50 [1] [µg/mL] | % of cells anti-hIgG APC+ [2] [%] | EC50 (LILRB2-His antigen) [nM] | EC50 [3] [µg/mL] | MFI (LILRA4) | binding result (LILRA4) | MFI (LILRA5) | binding result (LILRA5) | MFI (LILRB1) | binding result (LILRB1) | MFI (LILRA2) | binding result (LILRA2) | MFI (LILRA3) | binding result (LILRA3) | MFI (LILRB4) | binding result (LILRB4) | MFI [4] | binding result [4] | percent of LILRB2 reporter cells labeled [5] [%] | Kd [6] [nM] | also measured |
| --- | --- | --- | --- | --- | --- | --- | --- | --- | --- | --- | --- | --- | --- | --- | --- | --- | --- | --- | --- | --- | --- |
| B1 | 0.657 | 94.3 | 24.6 | > 10 | 10 | no binding | 10 | no binding | 9 | no binding | 10 | no binding | 10 | no binding | 13 | no binding | 11 | no binding | > 95 | 35.9 | koff [6]: 0.0121 s⁻¹; kon [6]: 338000 M⁻¹ s⁻¹; IC50 [7]: 0.209 µg/mL |
| B2 | 2.12 | 95.3 | 3.82 | 0.219 | 10 | no binding | 11 | no binding | 10 | no binding | 10 | no binding | 10 | no binding | 14 | no binding | 11 | no binding | > 95 | 1.84 | koff [6]: 0.00046 s⁻¹; kon [6]: 250000 M⁻¹ s⁻¹; IC50 [7]: 0.583 µg/mL |
| B3 | 0.482 | 94.3 | 46.5 | 0.056 | 9 | no binding | 11 | no binding | 9 | no binding | 10 | no binding | 10 | no binding | 14 | no binding | 10 | no binding | > 95 | 18.9 | koff [6]: 0.00565 s⁻¹; kon [6]: 299000 M⁻¹ s⁻¹; IC50 [7]: 0.16 µg/mL |
| B4 | 3.19 | 95 | 9.97 | 0.547 | 10 | no binding | 12 | no binding | 10 | no binding | 10 | no binding | 10 | no binding | 14 | no binding | 12 | no binding | > 95 | 7.45 | koff [6]: 0.0009 s⁻¹; kon [6]: 121000 M⁻¹ s⁻¹; IC50 [7]: 0.915 µg/mL |
| B5 | 2.66 | 94.2 | 82.9 | 0.332 | 10 | no binding | 11 | no binding | 10 | no binding | 10 | no binding | 10 | no binding | 15 | no binding | 12 | no binding | > 95 | 15.2 | koff [6]: 0.00305 s⁻¹; kon [6]: 200000 M⁻¹ s⁻¹; IC50 [7]: 0.507 µg/mL |
